Measured values as given in US20130108650A1 (ACCELERON PHARMA, published 2013).
Residue numbers refer to the chain shown, from its start.

T1: activin A (UniProt P08476 311-426)
T1 sequence (looked up): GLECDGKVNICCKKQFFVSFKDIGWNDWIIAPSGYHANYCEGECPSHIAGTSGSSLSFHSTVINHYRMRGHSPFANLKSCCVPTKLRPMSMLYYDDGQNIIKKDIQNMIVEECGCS

T2: hActRIIB-mFc (human; mouse, UniProt Q13705 19-137)
T2 construct: not shown: murine IgG2a Fc (captured by antibody against murine IgG2a Fc)
T2 sequence: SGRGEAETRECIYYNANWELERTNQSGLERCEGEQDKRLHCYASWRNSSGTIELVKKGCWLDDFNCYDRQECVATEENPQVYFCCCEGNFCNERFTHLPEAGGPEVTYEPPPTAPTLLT

B1: Fab-17C09 (Fab, V domains shown)
VH: EVQLLESGGGLVQPGGSLRLSCAASGFTFSQYNMTWVRQAPGKGLEWVSSIYSSGGVTPYADSVKGRFTISRDNSKNTLYLQMNSLRAEDTAVYYCARGRLLFDYWGQGTLVTVSS
VL: DIQMTQSPSSLSASVGDRVTITCRASQSISNYLNWYQQRPGKPPKLLIYAASSLQSGVPSRFSGSGSGTDFSLSISILQPEDFATYYCQQGYTAPRSFGQGTKVEIK
notes: Soluble Fab from Dyax's Fab310 library; the Fab constant domains are not; also called sFab 17C09
B2: Fab-17A11 (Fab, V domains shown)
VH: EVQLLESGGGLVQPGGSLRLSCAASGFTFSTYAMMWVRQAPGKGLEWVSRIYPSGGTTTYADSVKGRFTISRDNSKNTLYLQMNSLRAEDTAVYYCARGSAASSYWGQGTLVTVSS
VL: DIQMTQSPSFLSASVGDRVTITCRASQGISNYLAWYQQKPGKAPKLLIYAASTLQSGVPSRFSGSGSGTEFTLTISSLQPEDIGTYYCQQLISYPFTFGPGTKVDIK
notes: Soluble Fab from Dyax's Fab310 library; the Fab constant domains are not; also called sFab 17A11
B3: hActRIIB-hFc (human ActRIIB ECD linked to human IgG1 Fc) (Fc fusion, not shown: a dimerising Fc or GST)
chain: T2 sequence
B4: Ab-17G05 (antibody, V domains shown)
VH: EVQLLESGGGLVQPGGSLRLSCAASGFTFSNYWMGWVRQAPGKGLEWVSYIRSSGGLTHYADSVKGRFTISRDNSKNTLYLQMNSLRAEDTATYYCAKGLYSFDYWGQGTLVTVSS
VL: DIQMTQSPSSLSASVGDRVTITCRASQGVNNFLAWYQQKPGKAPRLLIYAASTLQSGVPSRFSGSGSGTDFTLSISNLQPEDFATYYCQQSYSTPRGFGQGTKVEIK
notes: also called antibody 17G05; Ab-R17G05
B5: Fab-17G05 (Fab, V domains shown)
VH: B4 VH
VL: B4 VL
notes: the Fab constant domains are not; also called sFab 17G05; Fab-R17G05
B6: Fab-17G01 (Fab, V domains shown)
VH: B4 VH with W33Q, G35D, R52G, S53P, L57R, H59K, K98R
VL: DIQMTQSPSSLSASVGDRVTITCRAGQSISNFLNWYQHTPGTGPKVLIYAASSLQSGVPSRFSGSGSGTEFTLTITNLQPEDFATYYCQQSYSTPFTFGPGTKVDIK
notes: Soluble Fab from Dyax's Fab310 library; the Fab constant domains are not; also called sFab 17G01

Legend:
[1] = biological target: B3; assay: SPR (BIACORE) competition: biotinylated ActRIIB-Fc on streptavidin chip, sFab 40 ug/ml then GDF11 500 ng/ml; competitor GDF11
Description: Affinity-purified sFabs were also screened in two SPR-based competition assays at Acceleron. The first assay evaluated the effect of sFab pretreatment on binding of GDF11 to immobilized ActRIIB-Fc. […] This signal was compared with a second signal (residual GDF11 binding) resulting from GDF11 binding to immobilized ActRIIB-Fc that had first been exposed to sFab (40 μg/ml).

[2] = biological target: B3; assay: SPR (BIACORE), human ActRIIB-hFc, Fab in solution, 25 C
[3] = biological target: B3; assay: SPR (BIACORE), human ActRIIB-hFc, Fab in solution, 37 C
[4] = biological target: B3; assay: SPR (BIACORE), human ActRIIB-hFc, Fab in solution, 25 C; 25 C
[5] = biological target: T1, activin A; assay: cell-based or functional assay
[6] = biological target: B3; assay: cell-based or functional assay
[7] = biological target: T2, hActRIIB-mFc; assay: SPR (BIACORE), Ab-17G05 on hActRIIB-mFc compared with Fab-17G05 on hActRIIB-hFc
Description: (§1) FIG. 2 depicts kinetic characterization of Ab-17G05 binding to hActRIIB-mFc as determined by BIACORE™-based analysis at 25° C. (A) or 37° C. (B). hActRIIB-mFc was captured on a chip with covalently immobilized antibody against murine IgG2a Fc and then exposed to Ab-17G05 at concentrations ranging from 0.0195 μg/ml to 5 μg/ml.
(§2) BIACORE™-based analysis was used to characterize binding of Ab-17G05 to ActRIIB. For this analysis, Ab-17G05 was purified from COS-cell-conditioned media by one-step protein G chromatography.

[8] = biological target: T2, hActRIIB-mFc; assay: SPR (BIACORE), hActRIIB-mFc captured on anti-murine IgG2a Fc chip, antibody in solution, 25 C
Description: as §1, §2

[9] = biological target: T2, hActRIIB-mFc; assay: SPR (BIACORE), hActRIIB-mFc captured on anti-murine IgG2a Fc chip, antibody in solution, 37 C
Description: FIG. […] (A) or 37° C. (B). hActRIIB-mFc was captured on a chip with covalently immobilized antibody against murine IgG2a Fc and then exposed to Ab-17G05 at concentrations ranging from 0.0195 μg/ml to 5 μg/ml.
as §2

[10] = biological target: B3; assay: SPR (BIACORE), hActRIIB-hFc captured on anti-human IgG1 Fc chip, Fab in solution, 25 C
Description: (§3) FIG. 1 depicts kinetic characterization of Fab-17G05 binding to hActRIIB-hFc as determined by BIACORE™-based analysis at 25° C. (A) or 37° C. (B). hActRIIB-hFc was captured on a chip with covalently immobilized antibody against human IgG1 Fc and then exposed to Fab-17G05 at concentrations ranging from 0.0195 μg/ml to 5 μg/ml. RU, response units.

[11] = biological target: B3; assay: SPR (BIACORE), hActRIIB-hFc captured on anti-human IgG1 Fc chip, Fab in solution, 37 C
Description: (§4) FIG. […] (A) or 37° C. (B). hActRIIB-hFc was captured on a chip with covalently immobilized antibody against human IgG1 Fc and then exposed to Fab-17G05 at concentrations ranging from 0.0195 μg/ml to 5 μg/ml. RU, response units.

[12] = biological target: B3; assay: SPR (BIACORE), hActRIIB-hFc captured on anti-human IgG1 Fc chip, Fab in solution, 37 C; 37 C
Description: as §4

[13] = biological target: B3; assay: SPR (BIACORE), hActRIIB-hFc captured on anti-human IgG1 Fc chip, Fab in solution, 25 C (values of Example 4 reprinted for comparison)
Description: as §3

[14] = biological target: B3; assay: SPR (BIACORE), hActRIIB-hFc captured on anti-human IgG1 Fc chip, Fab in solution, 37 C (values of Example 4 reprinted for comparison)
Description: as §4

[15] = biological target: B3; assay: SPR (BIACORE), hActRIIB-hFc captured on anti-human IgG1 Fc chip, Fab in solution, 25 C (values of Example 4 reprinted for comparison); 25 C; Fab values reprinted for comparison with Ab-17G05
Description: as §3

For B1, the “residual GDF11 binding” value [1] was < 50 % of Emax.

For B2, the koff [2] was 0.00019 s⁻¹, the kon [2] was 1.2e+06 M⁻¹ s⁻¹ and the Kd [3] was 9.9 nM. For the same binder, the koff [3] was 0.014 s⁻¹, the kon [3] was 1.4e+06 M⁻¹ s⁻¹ and the Kd [4] was 1.6 nM. The “residual GDF11 binding” value [1] was < 50 % of Emax.

B3 was tested, and the “IC50 of inhibition of activin A signaling, A204 reporter gene assay (activin A 5 ng/ml)” value [5] was 0.05 µg/mL.

B4 was tested, and the “IC50 of neutralization, A204 cell-based reporter gene assay (activin A 5 ng/ml plus ActRIIB-Fc 50 ng/ml)” value [6] was about 0.04 nM, the “fold improvement in off-rate and KD against Fab-17G05” value [7] was at least 20 fold and the Kd [8] was 0.028 nM. The koff [8] was 2.7e-05 s⁻¹, the kon [8] was 970000 M⁻¹ s⁻¹ and the Kd [9] was 0.092 nM. The koff [9] was 0.00014 s⁻¹ and the kon [9] was 1.5e+06 M⁻¹ s⁻¹.

In the case of B5, the “IC50 of neutralization, A204 cell-based reporter gene assay (activin A 5 ng/ml plus ActRIIB-Fc 50 ng/ml)” value [6] is reported as about 2.6 nM, the Kd [10] is reported as 0.55 nM and the koff [10] is reported as 0.00087 s⁻¹. The kon [10] was 1.6e+06 M⁻¹ s⁻¹, the koff [11] was 0.0031 s⁻¹ and the kon [11] was 2.6e+06 M⁻¹ s⁻¹. The Kd [12] was 1.9 nM, the “residual GDF11 binding” value [1] was < 50 % of Emax and the Kd [13] was 0.55 nM. The koff [13] was 0.00087 s⁻¹, the Kd [14] was 1.9 nM and the koff [14] was 0.0031 s⁻¹. It also gave a kon [14] of 2.6e+06 M⁻¹ s⁻¹ and a kon [15] of 1.6e+06 M⁻¹ s⁻¹.

B6 gave a Kd [2] of 3.8 nM, a koff [2] of 0.0018 s⁻¹ and a kon [2] of 460000 M⁻¹ s⁻¹. It also gave a Kd [3] of 21 nM, a koff [3] of 0.012 s⁻¹ and a kon [3] of 580000 M⁻¹ s⁻¹. For the same binder, the “residual GDF11 binding” value [1] was < 50 % of Emax.
